Where no end group is shown, it is not given here.
Legend:
integrin α9β1 = biological target: T1, integrin α9β1 (Homo sapiens, UniProt P05556+Q13797); experiment: Direct integrin binding assay with recombinant integrin α9β1; conditions: for binding of recombinant integrin α9β1 to coated protein: 1 mM MnCl2, FIG. 7; for binding of integrin α9β1 to smaller segments of D2628-S2664: 1 mM MnCl2, FIG. 13
T1 construct: A cDNA encoding the extracellular region of human integrin α9; An expression vector for the extracellular region of integrin β1; ACID coiled-coil (Velcro) peptide; FLAG; BASE coiled-coil (Velcro) peptide; made in house; host or cells: FreeStyle 293 Expression System (293-F cells)
T1 sequence (Q13797 30-981 limits assumed): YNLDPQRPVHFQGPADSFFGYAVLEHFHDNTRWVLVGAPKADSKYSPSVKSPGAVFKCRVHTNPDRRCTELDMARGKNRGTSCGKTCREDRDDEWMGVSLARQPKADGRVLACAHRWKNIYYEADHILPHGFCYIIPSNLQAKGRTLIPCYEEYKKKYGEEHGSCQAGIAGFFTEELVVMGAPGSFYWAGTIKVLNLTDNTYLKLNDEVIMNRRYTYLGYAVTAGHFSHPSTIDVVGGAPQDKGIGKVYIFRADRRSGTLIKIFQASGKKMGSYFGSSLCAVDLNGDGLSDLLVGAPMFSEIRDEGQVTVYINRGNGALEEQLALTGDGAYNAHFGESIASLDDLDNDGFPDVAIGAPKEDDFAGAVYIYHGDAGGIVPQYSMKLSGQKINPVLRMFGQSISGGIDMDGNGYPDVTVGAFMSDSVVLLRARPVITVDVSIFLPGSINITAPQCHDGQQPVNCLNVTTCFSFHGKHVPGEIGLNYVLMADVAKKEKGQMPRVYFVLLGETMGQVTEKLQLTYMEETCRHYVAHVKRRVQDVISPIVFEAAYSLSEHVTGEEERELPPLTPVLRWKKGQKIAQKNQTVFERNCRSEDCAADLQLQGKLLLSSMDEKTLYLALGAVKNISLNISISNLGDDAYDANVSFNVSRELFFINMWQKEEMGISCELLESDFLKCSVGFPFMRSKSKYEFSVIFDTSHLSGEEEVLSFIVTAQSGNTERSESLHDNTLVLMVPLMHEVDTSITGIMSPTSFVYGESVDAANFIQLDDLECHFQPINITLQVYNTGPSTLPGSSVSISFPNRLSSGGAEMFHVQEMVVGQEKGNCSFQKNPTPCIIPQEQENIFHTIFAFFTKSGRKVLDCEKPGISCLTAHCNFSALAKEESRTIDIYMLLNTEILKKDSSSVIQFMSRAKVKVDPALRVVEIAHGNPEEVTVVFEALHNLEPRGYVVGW
T1 sequence (P05556 21-728 limits assumed): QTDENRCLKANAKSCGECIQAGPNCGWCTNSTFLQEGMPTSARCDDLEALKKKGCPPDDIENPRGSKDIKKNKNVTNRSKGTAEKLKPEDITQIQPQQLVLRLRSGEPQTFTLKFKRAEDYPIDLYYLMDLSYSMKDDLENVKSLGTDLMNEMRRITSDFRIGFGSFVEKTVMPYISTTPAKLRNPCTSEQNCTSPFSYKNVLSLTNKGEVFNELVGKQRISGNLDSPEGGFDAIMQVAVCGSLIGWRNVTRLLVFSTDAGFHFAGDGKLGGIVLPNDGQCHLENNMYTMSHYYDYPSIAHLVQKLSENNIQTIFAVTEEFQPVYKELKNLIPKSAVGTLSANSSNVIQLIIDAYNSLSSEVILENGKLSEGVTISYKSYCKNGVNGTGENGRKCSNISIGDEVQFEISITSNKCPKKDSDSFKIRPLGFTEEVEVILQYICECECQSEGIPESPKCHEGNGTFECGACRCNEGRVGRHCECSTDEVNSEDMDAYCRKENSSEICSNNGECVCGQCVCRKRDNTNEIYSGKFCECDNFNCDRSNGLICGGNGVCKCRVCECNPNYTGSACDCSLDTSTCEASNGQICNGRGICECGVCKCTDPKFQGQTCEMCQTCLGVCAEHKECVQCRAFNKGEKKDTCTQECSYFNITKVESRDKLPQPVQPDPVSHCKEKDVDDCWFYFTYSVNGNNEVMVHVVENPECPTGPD
Text: A cDNA encoding the extracellular region of human integrin α9 was amplified by RT-PCR from total RNA extracted from RD cells and cloned into pBluescript KS(+). After verification of the nucleotide sequence, an error-free cDNA fragment was inserted into pcDNA-ACID-FLAG (Nishiuchi, R., Takagi, J., Hayashi, M., Ido, H., Yagi, Y., Sanzen, N., Tsuji, T., Yamada, M., and Sekiguchi, K. (2006) Matrix Biol. 25, 189-197). An expression vector for the extracellular region of integrin β1 was provided by Dr. Junichi Takagi (Takagi, J., Erickson, H. P., and Springer, T. A. (2001) Nat. Struct. Biol. 8, 412-416). The recombinant integrins were produced using the Freestyle™ 293 Expression System (Invitrogen) and purified as described in the above-mentioned publication Matrix Biol. 25, 189-197, (2006).
An integrin binding assay was performed as described in the above-mentioned publication Matrix Biol. 25, […], (2006). In some experiments, integrins were preincubated with synthetic peptides at various concentrations to evaluate the inhibitory activities of the synthetic peptides. The apparent dissociation constants were determined as described in Nishiuchi, R., Murayama, O., Fujiwara, H., Gu, J., Kawakami. T., Aimoto, S., Wada, Y., and Sekiguchi, K. (2003) J. Biochem, 134, 497-504.
To corroborate the role of integrin α9β1 as an adhesion receptor for polydom, a direct integrin binding assay was performed, using recombinant integrin α9β1. Plates were coated with full-length polydom, pol-N, pol-C, plasma fibronectin (pFN) or cellular fibronectin (cFN), and recombinant integrin α9β1 was added and allowed to bind thereto in the presence of 1 mM MnCl2 or 10 mM EDTA. BSA was used as a negative control. The bound integrin was quantified using a biotinylated anti-Velcro antibody and HRP-conjugated streptavidin.
Integrin α9β1 is known to bind to the third fibronectin type III domain of tenascin-C (TNfn3) and the osteopontin N-terminal half (OPN-Nhalf). These integrin α9β1 ligands were recombinantly expressed as GST fusion proteins and then purified. In the GST fusion proteins, the RGD cell-adhesive motifs were replaced with RAA to nullify their abilities to interact with RGD-binding integrins, such as those containing the αv subunit, Microtiter plates were coated with pol-C (10 nM), GST-TNfn3-RAA (100 nM) or GST-OPN-Nhalf-RAA (100 nM), and integrin α9β1 was added and allowed to bind thereto in the presence of 1 mM MnCl2.
To locate the integrin α9β1-binding site within polydom, a series of five N-terminal deletion mutants of polydom (pol-C, ΔEGF6, ΔPTX, ΔCCP20 and ΔCCP21; see FIG. 9) were constructed. Their binding activities for integrin α9β1 were evaluated in the presence of 1 mM MnCl2 or 10 mM EDTA using microtiter plates coated with these recombinant proteins (10 nM).
Among the 34 CCP domains within polydom, CCP21 is unique because it contains about 40 extra amino acids as compared with the other CCP domains. An assay to examine whether this extra region (hereinafter referred to as “extra segment”) within CCP21 is involved in binding to integrin α9β1 was performed, Microtiter plates were coated with a GST-CCP21 fusion protein, a D2628-S2664 deletion mutant of the GST-CCP21 fusion protein (CCP21ΔD2628-S2664), D2628-S2664 alone (see FIG. 11), pol-C or GST alone, and integrin α9β1 was added and allowed to bind thereto in the presence of 1 mM MnCl2 or 10 mM EDTA.
To further narrow down the region responsible for binding to integrin α9β1, the extra 37-amino acid segment of CCP21 was divided into smaller segments, of which GST fusion proteins were produced. Microtiter plates were coated with eight kinds of segments including CCP21, pol-C and GST alone, and integrin α9β1 was added and allowed to bind thereto in the presence of 1 mM MnCl2 or 10 mM EDTA.
To identify the residues involved in binding to Integrin α9β1, alanine scanning mutants and N-terminal or C-terminal deletion mutants of D2634-L2645 were produced as GST fusion proteins. […]

RD cells = experiment: Cell adhesion assay on coated plates (RD cells); format: cell-based, human; conditions: for promotion of RD cell adhesion: coated 96-well plates, 37° C. for 30 minutes
Procedure: A cell adhesion assay was performed as described in Sato, Y. , Uemura, T., Morimitsu, K., Sato-Nishiuchi, R., Manabe, R., Takagi, J., Yamada, M., and Sekiguchi, K. (2009) J. Biol. Chem. 284, 14524-14536. For an assay involving blocking antibodies, RD cells (human rhabdomyosarcoma cells) were preincubated with monoclonal antibodies of interest at room temperature for 15 minutes and plated on 96-well plates coated with recombinant polydom proteins or fibronectin. The cells were incubated for 30 minutes, washed, fixed with 3.7% formaldehyde, and stained with 0.5% toluidine blue.
The cells were plated on 96-well plates coated with serial diluted concentrations of full-length polydom, pol-N, pol-C or plasma fibronectin (FN) and incubated at 37° C. for 30 minutes. After washing out unattached cells, attached cells were fixed and stained with toluidine blue. The attached cells were counted under a microscope. The assay was performed in triplicate.

hematopoietic stem cells = experiment: Proliferation of hematopoietic stem cells on coated plates; format: cell-based, mouse; conditions: peptide 50 μM for 2 hours, then polydom-coated plate, FIG. 20
Procedure: Bone marrow cells were flushed out from the femurs and tibias of three mice of 6 to 7 weeks of age (C57BL/6J) and dissociated with a 22G needle. The cells were reacted with a biotin-labeled anti-lineage antibody for 30 minutes and subsequently with an anti-blotin antibody-conjugated magnetic beads, and lineage-positive cells were removed by automated magnetic cell sorter autoMACS (Miltenyi Biotec). After staining with PE-CD3, PE-Mac1, PE-Gr1, PE-Ter119, PE-B220, FTTC-Sca1 and APC-c-Kit, a lineage(−) Sca1(+) c-Kit (high) cell fraction was sorted out using FACSAria and used for the experiments described below.
The above-prepared cells were plated on a 48-well plate coated with a recombinant polydom protein or fibronectin. The same type of plate without coating was used as a control. The medium used was RPMI containing 10% fetal calf serum, thrombopoietin (30 ng/ml) and flt3 ligand (100 ng/ml). For the examination of cell proliferation, the cells were plated in duplicate wells for each coating at 1000 cells/well and started to be cultured, and the cell number was counted at the start of culture, and on day 2 and day 3. The remaining cells were divided into three aliquots, plated in wells for each coating, and subjected to FACS analysis on day 3 after the start of culture. For the FACS analysis, staining with an antibody cocktail containing PE-CD3, PE-Mac1, PE-Gr1, PE-Ter119, PE-B220, FITC-Sca1 and APC-c-Kit was performed and FACSCont was used.
The above-prepared cells were divided into three groups and plated on 48-well plates at 5000 cells/well. The medium used was RPMI containing 10% fetal calf serum, thrombopoietin (30 ng/ml) and flt3 ligand (100 ng/ml). For an EDDMMEVPY peptide treatment group, 2 μl of the peptide was added to each well at the final concentration of 50 μM, and for the other two groups, 2 μl of PBS was added to each well. Then, the culture was performed at […] for 2 hours. Subsequently, the cells were transferred to 48-well plates coated with a recombinant polydom protein or fibronectin. The cells cultured in the presence of the peptide were transferred to the recombinant polydom protein-coated plate, and the cells in one of the other two groups were transferred to the recombinant polydom protein-coated plate, and the cells in the remaining group were transferred to the fibronectin-coated plate. The culture was continued for 3 days and the cell numbers were counted on day 2, day 3 and […].

[1] = biological target: recombinant integrin α9β1 (human, UniProt Q13797 30-981; P05556 21-728); experiment: inhibition of integrin α9β1 (10 nM) binding to coated pol-C (10 nM) by synthetic peptide, 1 mM MnCl2, 10% DMSO
recombinant integrin α9β1, sequence (Q13797 30-981, chain 1 of 2): as the sequence (Q13797 30-981 limits assumed) above
recombinant integrin α9β1, sequence (P05556 21-728, chain 2 of 2): as the sequence (P05556 21-728 limits assumed) above
Procedure: To further corroborate the role of […] as the integrin α9β1 recognition sequence, an integrin α9β1-pol-C binding inhibition assay was performed using synthetic peptides consisting of the […] sequence or a part of the sequence, Integrin α9β1 (10 nM) was incubated on microtiter plates coated with pol-C (10 nM) in the presence of 1 mM MnCl₂ and various concentrations of the synthetic peptides. To prevent precipitation of the peptides, the assay was performed in the presence of 10% DMSO. Based on the amount of integrin α9β1 bound to pol-C set as 100%, the relative binding amount was calculated.

Q: “D2628-S2664: extra 37-amino acid segment of CCP21, GST fusion (DGQGHFDQEDDMMEVPYLAHPQHLEATAKALENTKES; also: GST fusion)” was tested. Which “binding to integrin α9β1 (extra segment of CCP21)” value (integrin α9β1; GST fusion proteins, 1 mM MnCl2, FIG. 12) did it give?
A: retained the binding activity

Q: Which “cell adhesion potency compared with full-length polydom” value (RD cells; FIG. 4) does the source give for “pol-C: C-terminal fragment of polydom, residues 1192 to 3567 of SEQ ID NO: 2, C-terminal His tag” here?
A: almost equivalent to that of full-length polydom

Q: What about the “promotion of RD cell adhesion” value (RD cells; FIG. 4) of the same molecule?
A: capable of promoting cell adhesion

Q: And the “morphology of attached RD cells” value (RD cells; microscopic observation, FIG. 5)?
A: exhibited spread morphology

Q: And the “binding of recombinant integrin α9β1 to coated protein” value (integrin α9β1)?
A: bound

Q: And the Kd (integrin α9β1; pol-C coated at 10 nM, 1 mM MnCl2, three independent determinations, read-out: dissociation constant between integrin α9β1 and ligand)?
A: 32.4 ± 2.7 nM

Q: How did the “binding of integrin α9β1 to smaller segments of D2628-S2664” value (integrin α9β1; GST fusion proteins) turn out when “D2628-L2645: segment in the N-terminal region of D2628-S2664, GST fusion protein (DGQGHFDQEDDMMEVPYL; also: GST fusion protein)” was run?
A: bound

Q: For “D2634-L2645: 12-amino acid segment in the extra segment of CCP21, GST fusion protein (DQEDDMMEVPYL; also: GST fusion protein)”, which “binding of integrin α9β1 to smaller segments of D2628-S2664” value (integrin α9β1; GST fusion proteins) is on record?
A: bound

Q: Which “proliferation of hematopoietic stem cells on polydom-coated plate after peptide treatment” value (hematopoietic stem cells; listed as EDDMMEVPY peptide) does the source give for EDDMMEVPY [EDDMMEVPY] here?
A: proliferate albeit more slowly than the cells on the fibronectin-coated plate

Q: And the “proliferation of hematopoietic stem cells on polydom-coated plate after peptide treatment” value (hematopoietic stem cells; listed as peptide consisting of the amino acid sequence represented by SEQ ID NO: 1)?
A: canceled

Q: With “E2641A: alanine substitution of Glu2641 in D2634-L2645, GST fusion protein (DQEDDMMAVPYL; also: GST fusion protein)” as the molecule, how does the “integrin binding activity of alanine scanning mutants of D2634-L2645” value (integrin α9β1; GST fusion proteins, FIG. 14) read?
A: almost completely abrogated the integrin binding activity

B1: EDDMMEVPY peptide (synthetic) (peptide)
peptide: EDDMMEVPY
notes: Corresponds to Glu2636-Tyr2644 of mouse SVEP1
Q: Which IC50 [1] does the source give for B1 here?
A: 180 nM

B2: pol-N: N-terminal fragment of polydom, residues 18 to 789 of SEQ ID NO: 2, C-terminal His tag (protein, listed as Mus musculus)
chain: WTNFQPVAPSLNFSFRLFPEASPGALGRLAVPPASSEEEAAGSKVERLGRAFRSRVRRLRELSGSLELVFLVDESSSVGQTNFLNELKFVRKLLSDFPVVSTATRVAIVTFSSKNNVVARVDYISTSRAHQHKCALLSREIPAITYRGGGTYTKGAFQQAAQILRHSRENSTKVIFLITDGYSNGGDPRPIAASLRDFGVEIFTFGIWQGNIRELNDMASTPKEEHCYLLHSFEEFEALARRALHEDLPSGSFIQEDMARCSYLCEAGKDCCDRMASCKCGTHTGQFECICEKGYYGKGLQHECTACPSGTYKPEASPGGISTCIPCPDVSHTSPPGSTSPEDCVCREGYQRSGQTCEVVHCPALKPPENGFFIQNTCKNHFNAACGVRCRPGFDLVGSSIHLCQPNGLWSGTESFCRVRTCPHLRQPKHGHISCSTAEMSYNTLCLVTCNEGYRLEGSTRLTCQGNAQWDGPEPRCVERHCATFQKPKGVIISPPSCGKQPARPGMTCQLSCRQGYILSGVREVRCATSGKWSAKVQTAVCKDVEAPQISCPNDIEAKTGEQQDSANVTWQVPTAKDNSGEKVSVHVHPAFTPPYLFPIGDVAITYTATDSSGNQASCTFYIKVIDVEPPVIDWCRSPPPIQVVEKEHPASWDEPQFSDNSGAELVITSSHTQGDMFPHGETVVWYTATDPSGNNRTCDIHIVIKGSPCEVPFTPVNGDFICAQDSAGVNCSLSCKEGYDFTEGSTEKYYCAFEDGIWRPPYSTEWPDCAI
modifications: C-terminal His tag
Q: How did the “promotion of RD cell adhesion” value (RD cells; FIG. 4) turn out when B2 was run?
A: only pol-C was capable

Q: What about the “binding of recombinant integrin α9β1 to coated protein” value (integrin α9β1) of the same molecule?
A: not

Q: With AEIDGIEL [AEIDGIEL peptide (integrin α9β1 recognition sequence in tenascin-C, synthetic)] as the molecule, how does the IC50 [1] read?
A: 7800 nM
